Consider one substance from patent US20250295587A1, “COMPLEX LIPID NANOPARTICLES ENCAPSULATING POLYPEPTIDES AND USES THEREOF” (SAIL BIOMEDICINES, INC., priority 2022, published 2025).

Details of data set [1]: species or system mice. The following applies: mouse, in vivo. On the procedure:
The animals used were C57BL6 female 8-week-old mice (Jax #0664). […] Mice were weighed, and a pre-bleed sample was taken (through tail vein, retro-orbital or submandibular means). The mice were fasted overnight before being dosed via intracolonic administration with 50 uL of a given insulin-loaded complex lipid formulation (Table 8). Non-terminal bleeds at 30 minutes and 60 minutes post-dose were taken, alternating routes of collection. A terminal bleed at 120 minutes post-dose via cardiac puncture was also taken. Whole blood samples from the pre-bleed, 30 minute, 60 minute, and 120 minute bleeds were processed for plasma then stored at −80° C. Insulin levels were quantified by MSD assay. Exposure to the active biomolecule (e.g. insulin) was measured as area under the curve (AUC) of the four measured timepoints, and dose was measured as BCA*dose volume (0.05 mL). Therefore, the data in Table 9 for each mouse is shown as systemic levels of insulin (or exposure normalized by dose). […] Unexpectedly, 20 of 22 (>90%) different complex lipid formulations out-performed free IC insulin.

The nature of data set [2]: Particle loading / insulin encapsulation efficiency by bicinchoninic acid assay (BCA). Format: physicochemical. The conditions noted are these: insulin concentration of the dosed preparation. Here is the method:
Next, the mixture of re-hydrated particles containing the active biomolecule was purified and separated from the free active biomolecule not loaded in the particles by a dialysis step overnight. The dialysis was performed in a 100 kD dialysis membrane in the buffer used for the formulation process as discussed above, at a buffer volume at least 2000× the volume of the solution to be purified (e.g., 0.1M sodium bicarbonate, pH 8.2, buffer). The dialysate was concentrated in centrifugal unit to the preferred concentration. Alternatively, the purification and separation step could be performed with tangential flow filtration (TFF). The described purification steps are optional and were not performed for all formulations. Particle morphological characteristics were analyzed with dynamic light scattering methods. Particle loading efficiency was quantified with a bicinchoninic acid assay (BCA).
The insulin encapsulation efficiency of the complex lipid formulations (the amount of insulin that was trapped to the vesicles) was also characterized, and the results ranged consistently from 25-35%. Similar characterizations were measured for other formulations of complex lipid particles.

For the substance “Control: free insulin given by intracolonic (IC) administration, not encapsulated”, the “Systemic levels of insulin (exposure AUC normalized by dose), Avg” value in data set [1] is reported as “Avg = 290.1”. Besides, in data set [2], the “BCA (Insulin mg/mL)” value is listed as “Avg = 1.16 mg/mL”.
